Results reported in article PMC6154995, “Heme-dependent Inactivation of 5-Aminolevulinate Synthase from Caulobacter crescentus” (Scientific Reports, 2018).

Test system: CC(C)(COP(=O)(O)OP(=O)(O)OC[C@H]1O[C@@H](n2cnc3c(N)ncnc32)[C@H](O)[C@@H]1OP(=O)(O)O)[C@@H](O)C(=O)NCCC(=O)NCCSC(=O)CCC(=O)O
Test: purified protein
Conditions: PLP

Substance: 5-aminolevulinate synthase (cALAS) (Caulobacter vibrioides CB15)
- Km: 2.42 ± 0.32 µM
